# Test results as given in doi:10.1101/2021.04.09.439147 (bioRxiv, 2021).
# Biological target: T1, SARS-CoV-2 S1 subunits-His tag (SARS-CoV-2, reference assumed, UniProt P0DTC2)
# T1 construct: source: bought: Sino Biological
# Assay: ELISA
# Conditions: both partners purified
binder,measurement,value
"FLAG-tagged K-874A (VHH, also called CoVHH1-FLAG) VHH: EVQLVESGGGQVETGGSLRLSCQASGSTFSDYVMAWFRQRPGKEREFVATISRNGGTTTYGSSVKGRFTISRDNAKSTVYLQMNSLKPEDTAVYYCYAVGGDGDSWGQGTQVTVSS",binding result,binds
